Assay [1] has as its target T1, recombinant biotinylated human FcRn (human, UniProt P55899 24-297; P61769 21-119, limits assumed, biotinylated (site not stated)).
T1 construct: also called human neonatal Fc receptor (FcRn); human Fc neonatal receptor
Description: AlphaLISA competition at pH 6; competitor: human IgG on acceptor beads. Background: Bead proximity is the source of the signal in Alpha formats.

Assay [2] addresses T2, recombinant Human Fc gamma RIIIA/CD16a Protein (R&D systems, 4325-FC-050; CF) (human, UniProt P08637 17-208, limits assumed).
T2 construct: also called FcγRIIIa/CD16; human Fc gamma receptor IIIa (CD16)
The assay can be described thus: ELISA; antibody coated, Fc gamma receptor titrated. For orientation: ELISA stands for enzyme-linked immunosorbent assay.

Assay [3] deals with T3, recombinant Human Fc gamma RI/CD64 Protein (R&D systems, 1257-FC-050, CF) (human, UniProt P12314 16-288).
T3 construct: also called FcγRI/CD64; human Fc gamma receptor I (CD64)
The assay can be described thus: ELISA; antibody coated, Fc gamma receptor titrated.

Assay [4] has as its target T4, His-tagged human PD1, R&D #8986-PD (human, UniProt Q15116 25-167).
T4 construct: Bought reagent; not shown: His tag
The assay can be described thus: BLI (Octet), antibody on AHC sensor, His-tagged human PD1 as analyte. In general terms: Biolayer interferometry detects binding as a change in optical thickness at a sensor tip.

The target of assay [5] is T5, Biotinylated Recombinant Human PD-1/CD279-Fc Chimera, carrier-free, Biolegend #789406 (human, UniProt Q15116 25-167, biotinylated (site not stated)).
T5 construct: Bought reagent; also called recombinant biotinylated human PD-1; human PD1/CD279 ligand; Fc part of the bought chimera not given; not described
The assay can be described thus: ELISA; antibody coated, biotinylated human PD-1-Fc titrated.

The target in assay [6] is T5, Biotinylated Recombinant Human …. Description: ELISA; antibody coated on the plate, biotinylated human PD-1-Fc titrated in solution (x axis), streptavidin-HRP, signal at 450 nm.
The target in assay [7] is T6, recombinant Human Fc gamma RIIA/CD32a (H167) Protein (R&D systems, 9595-CD-050, CF) (human, UniProt P12318 36-218).
T6 construct: also called FcγRIIa/CD32a; human Fc gamma receptors IIa
T6 sequence (looked up): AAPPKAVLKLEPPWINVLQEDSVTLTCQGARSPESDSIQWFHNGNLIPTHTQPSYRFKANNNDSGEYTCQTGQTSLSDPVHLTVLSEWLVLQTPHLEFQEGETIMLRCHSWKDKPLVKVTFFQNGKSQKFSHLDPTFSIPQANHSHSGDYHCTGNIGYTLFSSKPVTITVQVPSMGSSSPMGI
The assay can be described thus: ELISA; antibody coated, Fc gamma receptor titrated.

The target in assay [8] is T7, recombinant Human Fc gamma RIIB/CD32b Avi-tag Protein (R&D systems, AVI1875-050, CF) (human, UniProt P31994 46-217).
T7 construct: also called FcγRIIb/CD32b
T7 sequence (looked up): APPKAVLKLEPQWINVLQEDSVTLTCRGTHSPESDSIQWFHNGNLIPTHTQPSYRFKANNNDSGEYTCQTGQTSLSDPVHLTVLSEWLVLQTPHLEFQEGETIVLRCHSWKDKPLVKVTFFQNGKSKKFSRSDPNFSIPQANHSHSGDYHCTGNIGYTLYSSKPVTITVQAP
The assay can be described thus: ELISA; antibody coated, Fc gamma receptor titrated.

B1: Pembrolizumab/Keytruda (antibody, human IgG4 S228P, kappa)
heavy: not shown
light: EIVLTQSPATLSLSPGERATLSCRASKGVSTSGYSYLHWYQQKPGQAPRLLIYLASYLESGVPARFSGSGSGTDFTLTISSLEPEDFAVYYCQHSRDLPLTFGGGTKVEIKRTVAAPSVFIFPPSDEQLKSGTASVVCLLNNFYPREAKVQWKVDNALQSGNSQESVTEQDSKDSTYSLSSTLTLSKADYEKHKVYACEVTHQGLSSPVTKSFNRGEC
notes: also called Lambrolizumab; MK-3475
B1: the dissociation constant (Kd) (as a rule, the constant that tells how readily two partners part at equilibrium) in assay [1] turned out to be 7.45 nM; in assay [2], 1660 nM; in assay [3], 0.593 nM.

B2: Avelumab/Bavencio (antibody, human IgG1, lambda)
heavy: not shown
light: QSALTQPASVSGSPGQSITISCTGTSSDVGGYNYVSWYQQHPGKAPKLMIYDVSNRPSGVSNRFSGSKSGNTASLTISGLQAEDEADYYCSSYTSSSTRVFGTGTKVTVLGQPKANPTVTLFPPSSEELQANKATLVCLISDFYPGAVTVAWKADGSPVKAGVETTKPSKQSNNKYAASSYLSLTPEQWKSHRSYSCQVTHEGSTVEKTVAPTECS
notes: also called MSB-0010718C; PF-06834635
Turning to B2, the Kd in assay [1] worked out at 5.36 nM.

B3: LZM-009 (antibody, V domains shown)
VH: QVQLVQSGAEVKKPGASVKVSCKASGYTFTSYYMYWVRQAPGQGLEWMGGVNPSNGGTNFNEKFKSRVTITADKSTSTAYMELSSLRSEDTAVYYCARRDYRYDMGFDYWGQGTTVTVSS
VL: EIVLTQSPATLSLSPGERATISCRASKGVSTSGYSYLHWYQQKPGQAPRLLIYLASYLESGVPARFSGSGSGTDFTLTISSLEPEDFATYYCQHSRELPLTFGTGTKVEIK
notes: full antibody with an Fc region (K248, EU numbering); also called anti-PD-1 antibody LZM-009
On to B3, for which, in assay [4], the Kd amounted to 23.5 nM; the koff (in general, a measure of how fast the partners let go of each other) came to 0.0077 s⁻¹; the kon (in general, the second-order rate constant of association) was determined as 342000 M⁻¹ s⁻¹. Besides, the Kd in assay [5] amounted to 0.0407 nM. Moreover, the concentration giving a half-maximal response (EC50 (read off the curve)) (commonly the concentration needed to bring the measured effect to its halfway point) in assay [6] was about 0.06 nM.

B4: Durvalumab/Imfinzi (antibody, human IgG1, kappa)
heavy: EVQLVESGGGLVQPGGSLRLSCAASGFTFSRYWMSWVRQAPGKGLEWVANIKQDGSEKYYVDSVKGRFTISRDNAKNSLYLQMNSLRAEDTAVYYCAREGGWFGELAFDYWGQGTLVTVSSASTKGPSVFPLAPSSKSTSGGTAALGCLVKDYFPEPVTVSWNSGALTSGVHTFPAVLQSSGLYSLSSVVTVPSSSLGTQTYICNVNHKPSNTKVDKRVEPKSCDKTHTCPPCPAPEFEGGPSVFLFPPKPKDTLMISRTPEVTCVVVDVSHEDPEVKFNWYVDGVEVHNAKTKPREEQYNSTYRVVSVLTVLHQDWLNGKEYKCKVSNKALPASIEKTISKAKGQPREPQVYTLPPSREEMTKNQVSLTCLVKGFYPSDIAVEWESNGQPENNYKTTPPVLDSDGSFFLYSKLTVDKSRWQQGNVFSCSVMHEALHNHYTQKSLSLSPGK
light: EIVLTQSPGTLSLSPGERATLSCRASQRVSSSYLAWYQQKPGQAPRLLIYDASSRATGIPDRFSGSGSGTDFTLTISRLEPEDFAVYYCQQYGSLPWTFGQGTKVEIKRTVAAPSVFIFPPSDEQLKSGTASVVCLLNNFYPREAKVQWKVDNALQSGNSQESVTEQDSKDSTYSLSSTLTLSKADYEKHKVYACEVTHQGLSSPVTKSFNRGEC
notes: also called MEDI-4736
For B4, the Kd in assay [1] came to 8.31 nM; in assay [7], 160 nM; in assay [2], 234 nM; in assay [3], 2.34 nM; in assay [8], 233 nM.
